Data on one molecule can be found in patent publication US20180265594A1.

One may read the EC50 (read off the curve) as the concentration at which the effect is half-maximal.

Assay [1] addresses αHGF S2gG (HGF-specific 2-piece Surrobody). Kind of assay: capture ELISA: anti-VpreB1 IgG (2460B04 IgG1) coated, S2gG diluted in 50% mouse serum, detected with HRP-goat anti-E tag antibody; the concentration is that of S2gG. In general terms: In an ELISA, binding on a coated surface is turned into a signal by an enzyme label.
Assay [2] shares this target. Briefly: capture ELISA: anti-VpreB1 IgG (2460B04 IgG1) coated, S2gG diluted in 50% human or 50% monkey serum, detected with HRP-goat anti-E tag antibody; the concentration is that of S2gG.
Assay [3] addresses αHGF S3gG (HGF-specific 3-piece Surrobody). Kind of assay: capture ELISA: anti-VpreB1 IgG (2460B04 IgG1) coated, S3gG diluted in 50% human or 50% monkey serum; the concentration is that of S3gG.
For assay [4] the target is unchanged. Briefly: capture ELISA: anti-VpreB1 IgG (2460B04 IgG1) coated, S3gG diluted in 50% mouse serum; the concentration is that of S3gG.
The target is the same in assay [5]. Kind of assay: capture ELISA: anti-VpreB1 IgG (2460B04 IgG1) coated, S3gG diluted without serum; the concentration is that of S3gG.
The target in assay [6] is αHGF S2gG (HGF-specific 2-piece Surrobody). Kind of assay: capture ELISA: anti-VpreB1 IgG (2460B04 IgG1) coated, S2gG diluted without serum, detected with HRP-goat anti-E tag antibody; the concentration is that of S2gG.

B1: anti-human VpreB1 IgG1 (2460B04 IgG1) (antibody, V domains shown)
VH: EVQLVESGGGLVKPGGSLRLSCAASGFTFSNFEMNWVRQAPGKGLEWVSGISSNGRYINYADSVKGRFTISRDNAKNSLYLQMNSLRAEDTAVYYCARVVDFDQDYNGFDYWGQGTLVTVSS
VL: DIQLTQSPSFLSASVGDRVTITCRASQGISTDLNWYQQKPGKAPKLLIYAASNLESGVPSRFSGSGSGTEFTLTISSLQPEDFATYYCQQSYNWPYTFGGGTKVEIK
modifications: Used unlabeled, biotin-, DIG- or HRP-labeled; the letters do not carry the labels.
Consider B1, for which the EC50 (read off the curve) in assay [1] stood at 20 ng/mL; in assay [2] it was 6 ng/mL; in assay [3] it was 6 ng/mL; in assay [4] it was 20 ng/mL; in assay [5], 4 ng/mL; in assay [6], 4 ng/mL.
